Substitutions are numbered along the chain they refer to. Blank lines part the entries; values can stand above or below the binder they belong to.
How the values were obtained:
Details in all cases: both partners purified
[1] = molecular target: T1, Human Cdc42 GTPase, wild type, residues 1-179 (human, UniProt P60953 1-179); assay: stopped-flow fluorescence; ka from kobs against [GBD] as in buffer, with 1 M urea added
T1 construct: four extra residues (Gly-Ser-Phe-Thr) from the expression vector left at the N-terminus of Cdc42; human Cdc42, residues 1-179; also called Cdc42WT; wild-type Cdc42; source: E. coli Rosetta, purified (HisTrap, TEV cleavage, second HisTrap, Superdex 75); not shown: His6, N-terminal, cleaved

[2] = molecular target: T1, Human Cdc42 GTPase, wild type, residues …; assay: stopped-flow fluorescence; ka from kobs against [GBD]; 0.1 μM mantGppNHp·Cdc42 in one syringe, GBD in excess in the second; 50 mM sodium phosphate pH 7.0, 5 mM MgCl2, 1 mM TECP, 25 °C
[3] = molecular target: T2, Human Cdc42 (residues 1-179) with Glu31, Asn39, Glu62, Asp63, Asp65 and Gln74 all substituted by Lys (human, UniProt P60953 1-179, Glu31 substituted by Lys | Asn39 substituted by Lys | Glu62 substituted by Lys …); assay: as above
T2 construct: four extra residues (Gly-Ser-Phe-Thr) from the expression vector left at the N-terminus of Cdc42; human Cdc42, residues 1-179, with the 6K mutations around the subsite for GBD Csub; Loaded with mantGppNHp or GppNHp; also called Cdc42_(6K); source: E. coli Rosetta, purified (HisTrap, TEV cleavage, second HisTrap, Superdex 75); not shown: His6, N-terminal, cleaved

[4] = molecular target: T1, Human Cdc42 GTPase, wild type, residues …; assay: stopped-flow fluorescence; kd measured directly by displacement: 0.1 μM mantGppNHp·Cdc42 and 1 μM GBD mixed with 20 μM GppNHp·Cdc42; 50 mM sodium phosphate pH 7.0, 5 mM MgCl2, 1 mM TECP, 25 °C
[5] = molecular target: T1, Human Cdc42 GTPase, wild type, residues …; assay: other fluorescence titration; Kd from the fluorescence difference before mixing and at equilibrium at seven [GBD] values on the stopped-flow instrument; 0.1 μM mantGppNHp·Cdc42; 50 mM sodium phosphate pH 7.0, 5 mM MgCl2, 1 mM TECP, 25 °C; kd deduced as the product of Kd and ka
[6] = molecular target: T2, Human Cdc42 (residues 1-179) with …; assay: stopped-flow fluorescence; ka from kobs against [GBD] as in buffer, with 1 M urea added
[7] = molecular target: T2, Human Cdc42 (residues 1-179) with …; assay: stopped-flow fluorescence; ka from kobs against [GBD] as in buffer, with 2 M urea added
[8] = molecular target: T2, Human Cdc42 (residues 1-179) with …; assay: other fluorescence titration; Kd from the fluorescence difference before mixing and at equilibrium at seven [GBD] values on the stopped-flow instrument; 0.1 μM mantGppNHp·Cdc42; 50 mM sodium phosphate pH 7.0, 5 mM MgCl2, 1 mM TECP, 25 °C; kd deduced as the product of Kd and ka

T2 sequence (P60953 other isoform, or with tags, fused parts or gaps with the stated changes): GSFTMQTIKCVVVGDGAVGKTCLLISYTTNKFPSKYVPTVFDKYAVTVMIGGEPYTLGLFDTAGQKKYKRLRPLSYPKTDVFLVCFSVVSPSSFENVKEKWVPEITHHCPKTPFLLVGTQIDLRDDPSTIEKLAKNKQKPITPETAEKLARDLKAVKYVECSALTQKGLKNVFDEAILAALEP
T1 sequence (P60953 other isoform, or with tags, fused parts or gaps): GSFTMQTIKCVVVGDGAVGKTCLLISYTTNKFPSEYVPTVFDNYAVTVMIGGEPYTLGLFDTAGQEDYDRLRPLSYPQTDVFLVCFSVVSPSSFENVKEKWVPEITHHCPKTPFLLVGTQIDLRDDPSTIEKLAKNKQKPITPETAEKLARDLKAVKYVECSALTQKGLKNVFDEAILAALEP

kon [2]: 97000 M⁻¹ s⁻¹
fold increase in kd relative to GBDWT [5]: 7 fold
B2: WASP GBD (residues 228-298) with Lys230Lys231Lys232 changed to Glu (domain or fragment, human)
chain: GSSGEEEISKADIGAPSGFKHVSHVGWDPQNGFDVNNLDPDLRSLFSRAGISEAQLTDAETSKLIYDFIEDQG
notes: two extra residues (Gly-Ser) from the thrombin recognition site left at the N-terminus of GBD; also called GBD3E; source: E. coli Rosetta, purified (GSTrap, thrombin, 70 °C heat step, Superdex 75); not shown: GST, N-terminal, cleaved

fold decrease of ka at 1 M urea relative to no urea [1]: 3.1 fold
fold decrease of ka at 1 M urea relative to no urea [6]: 3.5 fold
fold decrease of ka at 2 M urea relative to no urea [7]: 9.2 fold
kon [2]: 920000 M⁻¹ s⁻¹
kon [3]: 1.09e+07 M⁻¹ s⁻¹
fold increase in kd relative to GBDWT [5]: 2 fold
fold weakening in binding affinity relative to GBDWT [5]: 13 fold
fold decrease in kd relative to Cdc42WT [8]: 121 fold
fold higher affinity than GBDWT-Cdc42WT [8]: ~100 fold
fold increase in binding affinity relative to Cdc42WT [8]: ~1500 fold
B3: WASP GBD (residues 228-298) with Lys230Lys231Lys232 substituted by Ala (domain or fragment, human)
chain: B2 chain with E5A, E6A, E7A
notes: two extra residues (Gly-Ser) from the thrombin recognition site left at the N-terminus of GBD; 15N labelled for the NMR experiment; also called GBD3A; source: E. coli Rosetta, purified (GSTrap, thrombin, 70 °C heat step, Superdex 75); not shown: GST, N-terminal, cleaved

fold reduction of ka relative to GBD3A [2]: 2.5 fold
fold increase of Kd relative to GBD3A [5]: 3.7 fold
B4: WASP GBD (residues 228-298) with the 3A mutations plus Arg273 to Glu and Gly275 to Asp (domain or fragment, human)
chain: B2 chain with E5A, E6A, E7A, R48E, G50D
notes: two extra residues (Gly-Ser) from the thrombin recognition site left at the N-terminus of GBD; also called GBD_(3A/ED); source: E. coli Rosetta, purified (GSTrap, thrombin, 70 °C heat step, Superdex 75); not shown: GST, N-terminal, cleaved

More lines, now with the values behind:

B1: GTPase-binding domain (GBD) of the Wiskott-Aldrich Syndrome protein (WASP), wild type, residues 228-298 (domain or fragment, human)
chain: B2 chain with E5K, E6K, E7K
notes: two extra residues (Gly-Ser) from the thrombin recognition site left at the N-terminus of GBD; 15N labelled for the NMR experiment; also called GBDWT; wild-type GBD; source: E. coli Rosetta, purified (GSTrap, thrombin, 70 °C heat step, Superdex 75); not shown: GST, N-terminal, cleaved
fold decrease of ka at 1 M urea relative to no urea [1]: 1.6 fold
kon [2]: 5.53e+06 M⁻¹ s⁻¹
kon [3]: 2.14e+07 M⁻¹ s⁻¹
koff [4]: 0.696 ± 0.011 s⁻¹
Kd [5]: 114 ± 9 nM
koff [5]: 0.63 s⁻¹

B5: Truncated WASP GBD (residues 238-298) with the BR segment deleted (domain or fragment, human)
chain: GSIGAPSGFKHVSHVGWDPQNGFDVNNLDPDLRSLFSRAGISEAQLTDAETSKLIYDFIEDQG
notes: two extra residues (Gly-Ser) from the thrombin recognition site left at the N-terminus of GBD; also called GBDΔBR; source: E. coli Rosetta, purified (GSTrap, thrombin, 70 °C heat step, Superdex 75); not shown: GST, N-terminal, cleaved
kon [2]: 40000 M⁻¹ s⁻¹
kon [3]: 4.03e+06 M⁻¹ s⁻¹
fold increase in kd relative to GBDWT [5]: 10 fold
fold weakening in binding affinity relative to GBDWT [5]: 1420 fold
fold decrease in kd relative to Cdc42WT [8]: 16 fold
fold increase in binding affinity relative to Cdc42WT [8]: ~1500 fold

From PMC6467919, “Designed Mutations Alter the Binding Pathways of an Intrinsically Disordered Protein” (Scientific Reports, 2019)
